Results: the DeepSol protein solubility set

experiment: soluble on expression in E. coli; label from the status in PepcDB or PDB records

Question: Which “soluble on expression in E. coli” value does the source give for “MGSDKIHHHHHHMSFRSGVATFAGKSSYWFLHTFLHGGSSLPGKITLKLDPNILRTLGAKYDVIVITGTNGKTLTTALTVSVLHEKYPAILTNPTGSNMEQGIVTTFLNAKNPKTGRPLAVLEVDEANVIKVTHYIEPKAFVFTNIFRDQMDRYGEIYTTYQKILDGVALAPKATIIANGDSPIFNSKELPNPIQYYGFDNEPDTDMKAKPNTDGVLCPVCQHILHYHSLTYSNQGKYFCPNCGFARPELTYRLTALGEQTPTSSHFDVDGHPFTIQVGGTYNIYNALAAYAVGRFMGVAPEQIAHAFTANERVFGRQEVINVGDKRVTIILVKNPVGLDQVLHMIGTDKEQFSFVALLNANYADGIDTSWIWDGDFEQLTALDIPTFITGGERYKDITFRLKVAGVPDDQHIVEPDLEKVVDRITDLPTERVYVLATYTAMLQLRKILATKGYIKEGFGA” here?
Answer: not soluble

Question: Which “soluble on expression in E. coli” value does the source give for “MLTIGLYNTYDTKKLHEAHIRAIARAAPVAYAYEFHLALIGFPFDSDDPKEVAERVASTTTIGEGGKYLLELAKSNKFHLLDFPKRGFPPQFGEVIATTSKPSKEKVIGSREVAEMALRGKSLMLIIGLGRHGLPKEVFEISKYHLDITDGREISLETCTAIGIIPARIKTLMEALKWK” here?
Answer: not soluble

Question: For “MTQPAIQLTEYQRKWIEDKSRFKISLKARQTGFSFAVSLEVVLDAVERRTTWVLLSRGERQSKELMEKVAMHARAIGVACEELETTFKIDDKDIKQLEVRFPNGSKVIGLPANPDTARGFSGNVVLDEFAFHADSRKIWTALYPTITRGYKIRVISTPNGKSGKFYDLWMDNTGTWSKHFVDIYMAKEQGLDIDIDELRKGCESEDDWLQEFCCEFIDENGALLPYELITPCETDEATFTLPEDFTPQGDLTLGVDIGRKRDLTVMWVLEYTGTLYWTRAIHILEKQKFSVQREQLFTYLSMPRMRRACIDATGIGMQLAEEAVEAFGSKVEAVEFTGPVKQELAITQRRVFEDRAVRIPIDRVLRNDLHSVQKITTAAGNIRYAAERSEHGHADRFWALALALHAAINNPFVPLETKVARHSTMRRAMEGYG”, which “soluble on expression in E. coli” value is on record?
Answer: not soluble

Question: With “MPTLKVAYIPEHFSTPLFFAQQQGYYKAHDLSIEFVKVPEGSGRLINLLNSNEVDIAIGLTEAFIADIAKGNENIHVLDTYVKSPLLWAVSTGSNRDDVTDAKQLKRIGVSRIGSGSYVMSFVLAHQLGVPSFDQFQVLSNFKNLRDSVNLKDGVEGSDAFMWEYFTSKKYYDNHEIKQIDQIYTPWSSWVVATSSDSLQAKSDVIKNFIDAVNQGIQYYNEHVDEAIEYISSNLDYSAEDAKEWTKTVEFNSRIGKTPLDWDTIVVKTKDTLKLAGVLAESDDVILKRLNSNVKKTNL” as the sequence, how does the “soluble on expression in E. coli” value read?
Answer: soluble

Question: For “MGSDKIHHHHHHMPVFYPAVQGSLPMGGQESLPLRRLKSFQPLGRLTDDQLVLLASRAERRTHGPGQRVMERGVRDGLDYFLISGAVELQSVDGRKSTIEAETDKALNPVARLQPRMYDVTAVKPCEFLVIEQEVLNQMLRAAPISQVEMDSSDHDEDQSEEHHLLMEFYSELRSNQVQLPSVPDVAWKVRRVVDREDSSATEVASAVSADPAMAAKLVRSCNSPLYRGFSDVRNVREAVVRLGMRTTRQLVTVFAMREVFKTRRAPLQKEMEQLWRHSREVAALCWVLADHATRIDPEEALLAGLLHDIGVVPVLVQAEHHVNLFADDRNLHHAIDELRADVGCAVLENWAFPKAFVEAVRHAEDWHHECRETAPQLVDVVIVAQLHSMIGSSQNEGLPAFDQVPAWRRLGELELNASRSLQLLSEARERVDEVQKLLSIR”, which “soluble on expression in E. coli” value is on record?
Answer: not soluble

Question: For “GPGSMLPQLLTENLCSLVEAEDRYAFSILWEFDENLNVVRDWFGKTIIRSRGALYYGDAQRMIDNPADTSDIAVSLRELMRLSKHFKAQREEDGALFLASQEFKFKVDNEHVNPTDMQVYQTFEANSMIEEWMLYANAAVATKVYESYPQWTLLRRHEPPAEGAFDTLNDALYSKLRVRLDDTTSLTLNKSLDKCEDPQDPYFNKLIRILTTRCLRQAQYFSSGG”, which “soluble on expression in E. coli” value is on record?
Answer: not soluble

Question: With “GPGSMPVDYSKKLDALRELYERVQQKDTDIPEDVYAAAGVKNKARLKDIEKEISTTKKKVSQEVKKVTNEEIEKEYEALAKEHNMTVEEFKETVMGKGRQPALGSEFSERHAAQRKERAEQRDLKETRRQVERGDFDMTVDYV” as the sequence, how does the “soluble on expression in E. coli” value read?
Answer: soluble

Question: With “VLTCNEAFARMRGQSVKEIEGSSIVSLYAPEDQQMVKDKLKITDSTGFCSCQAKMMRKDGTIFPVQIDVVGLKDENGQIMYRIVTVQDSTER” as the sequence, how does the “soluble on expression in E. coli” value read?
Answer: not soluble

Question: For “MAHCTEYMNAPKKLPADVAEELATTAQKLVQAGKGILAADESTQTIKKRFDNIKLENTIENRASYRDLLFGTKGLGKFISGAILFEETLFQKNEAGVPMVNLLHNENIIPGIKVDKGLVNIPCTDEEKSTQGLDGLAERCKEYYKAGARFAKWRTVLVIDTAKGKPTDLSIHETAWGLARYASICQQNRLVPIVEPEILADGPHSIEVCAVVTQKVLSCVFKALQENGVLLEGALLKPNMVTAGYECTAKTTTQDVGFLTVRTLRRTVPPALPGVVFLSGGQSEEEASVNLNSINALGPHPWALTFSYGRALQASVLNTWQGKKENVAKAREVLLQRAEANSLATYGKYKGGAGGENAGASLYEKKYVY”, which “soluble on expression in E. coli” value is on record?
Answer: soluble

Question: Which “soluble on expression in E. coli” value does the source give for “MFGRLKQKVKEKTGRAKATTLPAEVDDAMGYFKNLTPRVKDLHKSMTNLEDISKWQKKASFSGTLENYSRLGDKINVKPFMDAVDARMGAEADAVKGVLAICEKYKSFYQNEGKLHADSIANLNRTRLDMDSAADKYANNETEVNKTRLDNSTTEFEVACERMRELANGIKTIESNHSSWQDGLMKEIKVALRK” here?
Answer: not soluble

Question: For “MGSDKIHHHHHHMSNKKLIINADDFGYTPAVTQGIIEAHKRGVVTSTTALPTSPYFLEAMESARISAPTLAIGVHLTLTLNQAKPILPREMVPSLVDEAGYFWHQSIFEEKVNLEEVYNEWDAQIISFMKSGRRPDHIDSHHNVHGKNKKLLGVALALARKYQLPLRNASRSIETKDYLELYQDVRTPDEMLYQFYDKAISTETILQLLDMVVCSEGEVFEINCHPAFIDTILQNQSGYCMPRIREVEILTSQEVKEAIEERGILLANYESLAM”, which “soluble on expression in E. coli” value is on record?
Answer: not soluble

Question: With “MGSDKIHHHHHHMVSSSAKLHDPEEGSAANFPDIDNLKIAFGQLPSGVVIVTSQGCGGEMVGATVSSFASLSFTPPLVMLGLAQSSTTLSAILDHGHFAVHVVAEPQQDIAMRFASSRADKFSDIDFKLSPSGVPILSEFDTCFHCALERAQSAGDHQLLIGRIVDVSTVERDTTPVAWFNRRFHICEPRALV” as the sequence, how does the “soluble on expression in E. coli” value read?
Answer: not soluble

Question: For “MSLKTFTDRWRQLEWDDIRLRINGKTAADVERALNAAHLSRDDLMALLSPAAADYLEPIAQRAQRLTRQRFGNTVSFYVPLYLSNLCANDCTYCGFSMSNRIKRKTLDEVDIQRECDAIRKLGFEHLLLVTGEHQAKVGMDYFRRHLPTIRRQFSSLQMEVQPLSQENYAELKTLGIDGVMVYQETYHEAIYAQHHLKGKKQDFFWRLETPDRLGRAGIDKIGLGALIGLSDNWRVDCYMVAEHLLWMQKHYWQSRYSVSFPRLRPCTGGVEPASVMDEKQLVQTICAFRLLAPEIELSLSTRESPWFRDHVIPLAINNVSAFSKTQPGGYADDHPELEQFSPHDARRPETVASALSAQGLQPVWKDWDSWLGRASQTREGHHHHHH”, which “soluble on expression in E. coli” value is on record?
Answer: not soluble

Question: For “MQTSIISAQSLSKLVSTNQEHLTILKQVNLSIQAGESVAIVGASGAGKSTLMTLLAGLDTPSEGEVYLLGKPLSQLDDEARAALRSESVGFVFQSFLLIPSLSALENVTLPCLLKGEAEDRERAQKLLKAVGLEHRMHHSPAQLSGGEQQRVAIARAFMISPQVLFADEPTGNLDQETAAKVIDLLFELNREHGTTLVLVTHDPKLAQRCQRRFFMQAGELEERV”, which “soluble on expression in E. coli” value is on record?
Answer: not soluble

Question: With “MGSDKIHHHHHHMTMTDERPVLVATEADDITADMVITELNRRDVPVVRFNLADIGEGLTVSARFGTCPAPVVGQVRTSSRTADLTRVRSVYWRRPEWPSFPHLSPDDSRFAAAQVRYGLGGTLYALDHPLWVNHPLRIAAADYKPAQLALAQQLGFTIPTTLVTNDPAEAREFIRTQGDVIFKTLRWTPYTRDGVPVTGWADPVTADEIDDNVRITPHLFQARVDKVTDLRVLIVGQHTFAVRIDSELLDWRRDYSVLTYTVEHLPDSVDKALHAYLDRLELVSGSFDLTVDRAGVYWWLELNPNGQWGWLEKETGLPMSAAFADLLVQGDRQ” as the sequence, how does the “soluble on expression in E. coli” value read?
Answer: not soluble

Question: With “MGHHHHHHMEARNMTPFTYFSLPMQKLFLRNQAAVRNKPYAKYFRSEMRVPLSAVRKIQQGPMALEDTLTPSIEDINRLLEPDFVSEESGYALLPGPMAYVQSRKFFPGCTAQMFKWWFIWHPAESERYTLWFPYAHVSNPCVHHQRLRDESLSFEERLYGNTFCASEYVGDRLMHLHIDFQQPASLGLNTDLYREAKIDGSVSALMSLADHPEVPVSLMVHLFKEVPDGMYLTSRYWVGAHPSMARFPGAEKAASLLKENGFGEAELETLAYEFAVHDMCEFNHLASFLPDLYREFGTPAA” as the sequence, how does the “soluble on expression in E. coli” value read?
Answer: soluble

Question: With “MGSDKIHHHHHHMNPSPLPYFLGCPSWSENAWRDYLYPADANSNQMLGFYSQVFNAVEGNTTFYARPAPGTIARWAQLMPEHFRFTAKFPRDVSHEGDLRDQLEPAFDFTRLMAPLGRRVSPYWLQLPAQFGPARLGELCHFLDQIAVPVAVEVRNQAFFAKGEEERLLNRLLHERGVERICLDPRALFSCTSRDPAVLHAQSKKPKVPPRPAAFSQHPQVRFIGHPELEANHTFLSPWVEKVAAWIEEGRNPYIFLHTSDNRLAAALAQRFHQRLMARLPGLAPLPELPRAPEVEQLGLL” as the sequence, how does the “soluble on expression in E. coli” value read?
Answer: not soluble

Question: With “MSNAFEYLRTYVESTTETDAAVARAREDAAEFGLPAPDEMTGQLLTTLAATTNGNGSTGAIAITPAAGLVGLYILNGLADNTTLTCIDPESEHQRQAKALFREAGYSPSRVRFLLSRPLDVMSRLANDSYQLVFGQVSPMDLKALVDAAWPLLRRGGALVLADALLDGTIADQTRKDRDTQAARDADEYIRSIEGAHVARLPLGAGLTVVTKALEHHHHHH” as the sequence, how does the “soluble on expression in E. coli” value read?
Answer: soluble

Question: With “MSQLMNAHDRRNEPAPNAPPEFQLQNRTRPAPTPIEYITLSSDDEIEVIPPPPKRAKMMEEQKPKDLLENPQLPEVPSSSASFVIPQIVVDNEEVPEDPRMKTPSPIQGASVAMPVRARIQESPKVSRDPTPLSRASSVVIPEVPAVSEPEPLPVEVLAISIPTTSPDTAPSTSSSVETVESVTEVVAISSAEASSDAPARSPLKKKVANSVKPVVLPSRKSTRNKKDMNQIKEDEELVSNFNNGIGVISRGTIVPRGLSRTPFHFKKEATDDKAGKVKDMLKIDMQPVFTPAGHSSKDLIKRKARNSLEPSTSDADISFMKNERGKIRTGEKFQATIPDIEPSSTLTEYMDQEDKEEIFWETLDMDKDNLEESKKFHETLRNVYWRAIWRQFQGHIPFETALQHLMKNNLDFAQSLETIDENLKSLPQSFKEPCVAQVKIFDKLLQDKKTTRRQLQEKAMRNYHIAEVQQYHYRFRKFFKYQEKYGVVCNCAEKLCNNLKFEPRYGCTNCKKNVKSSSDHGATEKLCLICQTYQKLTGNVRPARNVEFCDDELEKIYHWSQKEEDLNRTLSREEFEELVREEKNKKWKNNDLSAEETAMLNQKELRIPNRRHRTHLSDQEKQARGEKICAQLQPYVLPHFSKCNCKRMGRSSWRCETEGKSSFSIQERKDYFREVRDCKGDLQQVARNLKVAPEVVRAFINIYGIEYDLEIYFPNKKLPNLIPIVYDIPPSNLPPIIPDGSSNSSSRDGSPYIPPEERSPKKRRSN” as the sequence, how does the “soluble on expression in E. coli” value read?
Answer: not soluble

Question: With “MNNAMQLLQPYPFKKLRALLGSVTPNPEKRPVALSIGEPKHRSPDFVAKALADNLDQMAVYPTTLGIPALREAIAGWCNRRFGVPQGWIDPARNVLPVNGTREALFAFTQTVVNRSDDGLVVSPNPFYQIYEGAAFLAGAQPHYLPCLSDNGFNPDFDAVDADIWKRCQILFLCSPGNPTGALIPVETLKKLIALADEHDFVIAADECYSELYFDEQTPPPGLLSACVELGRQDFKRCVVFHSLSKRSNLPGLRSGFVAGDAEILKAFLLYRTYHGCAMPVQTQLASIAAWNDEEHVRANRDLYREKFDAVLDILAPVLDVQRPDGGFYLWPNVGTDDAAFCRDLFVDQHVTAVPGSYLSREVDGVNPGAGRVRLALVAPLAECIEAAERIRAFVLK” as the sequence, how does the “soluble on expression in E. coli” value read?
Answer: not soluble
